# T1: Dda K38A (bacteriophage T4, UniProt P32270 1-439, K38A)
# T1 sequence: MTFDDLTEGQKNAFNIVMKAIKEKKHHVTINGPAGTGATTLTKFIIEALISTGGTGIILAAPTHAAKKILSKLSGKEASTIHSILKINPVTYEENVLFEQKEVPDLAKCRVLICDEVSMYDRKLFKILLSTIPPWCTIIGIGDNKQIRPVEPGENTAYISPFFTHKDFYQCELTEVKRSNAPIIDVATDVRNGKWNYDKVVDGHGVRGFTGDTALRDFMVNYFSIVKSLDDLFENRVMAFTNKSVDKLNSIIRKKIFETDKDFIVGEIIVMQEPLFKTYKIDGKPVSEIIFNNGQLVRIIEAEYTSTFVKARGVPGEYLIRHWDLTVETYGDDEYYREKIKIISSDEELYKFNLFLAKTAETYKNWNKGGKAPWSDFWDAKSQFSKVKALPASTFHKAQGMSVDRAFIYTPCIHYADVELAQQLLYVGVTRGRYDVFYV
# Molecular target: T1, Dda K38A
# Assay: X-ray crystallography
binder,measurement,value
TTTTTTTT (ssDNA) [dT8],binding result,binds

# Reference: PMC3392491
